In IntAct's records for PubMed 21685908:

B1: Rab5 GDP/GTP exchange factor (Homo sapiens), Q9UJ41 (parent)
chain: MSLKSERRGIHVDQSDLLCKKGCGYYGNPAWQGFCSKCWREEYHKARQKQIQEDWELAERLQREEEEAFASSQSSQGAQSLTFSKFEEKKTNEKTRKVTTVKKFFSASSRVGSKKEIQEAKAPSPSINRQTSIETDRVSKEFIEFLKTFHKTGQEIYKQTKLFLEGMHYKRDLSIEEQSECAQDFYHNVAERMQTRGKVPPERVEKIMDQIEKYIMTRLYKYVFCPETTDDEKKDLAIQKRIRALRWVTPQMLCVPVNEDIPEVSDMVVKAITDIIEMDSKRVPRDKLACITKCSKHIFNAIKITKNEPASADDFLPTLIYIVLKGNPPRLQSNIQYITRFCNPSRLMTGEDGYYFTNLCCAVAFIEKLDAQSLNLSQEDFDRYMSGQTSPRKQEAESWSPDACLGVKQMYKNLDLLSQLNERQERIMNEAKKLEKDLIDWTDGIAREVQDIVEKYPLEIKPPNQPLAAIDSENVENDKLPPPLQPQVYAG

Variants of: B1
Conditions: with eea1_human EEA1, Q15075
Sequence of eea1_human EEA1, Q15075 (Q15075 whole entry): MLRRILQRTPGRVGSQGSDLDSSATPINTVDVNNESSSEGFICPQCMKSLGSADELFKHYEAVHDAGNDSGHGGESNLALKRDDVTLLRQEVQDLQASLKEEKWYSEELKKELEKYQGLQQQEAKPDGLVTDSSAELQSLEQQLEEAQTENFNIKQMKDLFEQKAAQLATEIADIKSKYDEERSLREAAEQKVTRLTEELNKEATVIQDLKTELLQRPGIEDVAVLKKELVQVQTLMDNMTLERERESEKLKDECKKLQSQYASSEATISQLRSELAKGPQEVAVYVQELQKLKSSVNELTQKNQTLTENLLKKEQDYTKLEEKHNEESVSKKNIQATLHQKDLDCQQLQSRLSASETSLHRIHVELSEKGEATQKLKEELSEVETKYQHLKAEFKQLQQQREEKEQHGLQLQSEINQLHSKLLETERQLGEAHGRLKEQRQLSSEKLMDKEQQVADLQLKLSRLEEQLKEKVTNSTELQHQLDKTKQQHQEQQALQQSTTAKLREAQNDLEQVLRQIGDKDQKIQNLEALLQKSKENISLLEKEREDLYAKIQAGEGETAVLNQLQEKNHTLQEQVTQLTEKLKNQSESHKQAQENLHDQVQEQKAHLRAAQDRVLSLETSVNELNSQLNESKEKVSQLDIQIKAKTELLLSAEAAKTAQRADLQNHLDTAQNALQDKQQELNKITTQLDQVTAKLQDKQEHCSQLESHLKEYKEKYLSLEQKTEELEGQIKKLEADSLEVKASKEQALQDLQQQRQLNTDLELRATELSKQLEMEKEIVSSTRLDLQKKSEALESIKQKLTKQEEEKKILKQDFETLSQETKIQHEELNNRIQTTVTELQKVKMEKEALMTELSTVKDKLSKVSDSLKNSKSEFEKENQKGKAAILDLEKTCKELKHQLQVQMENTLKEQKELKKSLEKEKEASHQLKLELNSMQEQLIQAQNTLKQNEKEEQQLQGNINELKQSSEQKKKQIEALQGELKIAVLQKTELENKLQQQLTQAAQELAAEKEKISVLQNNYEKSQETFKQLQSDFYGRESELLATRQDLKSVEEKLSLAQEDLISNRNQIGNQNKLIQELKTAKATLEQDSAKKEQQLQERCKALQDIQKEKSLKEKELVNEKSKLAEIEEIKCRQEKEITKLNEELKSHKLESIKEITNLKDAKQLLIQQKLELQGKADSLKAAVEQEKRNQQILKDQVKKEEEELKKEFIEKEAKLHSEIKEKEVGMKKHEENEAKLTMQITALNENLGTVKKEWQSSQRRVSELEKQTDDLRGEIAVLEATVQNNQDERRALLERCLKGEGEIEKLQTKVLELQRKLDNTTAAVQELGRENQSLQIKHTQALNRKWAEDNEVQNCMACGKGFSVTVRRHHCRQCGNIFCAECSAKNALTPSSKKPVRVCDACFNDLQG

Row | Variant | effect of a mutation on the interaction
1 | Q79L | increasing interaction
